{"source": "patent US20150099705A1", "target": "human Nav1.7 (sodium channel protein type 9 subunit alpha) (human) (UniProt Q15858)", "experiment": "cell-based or functional assay", "data": [{"substance": "wild type Protoxin-II (peptide)", "values": [{"measurement": "IC50, FLIPR assay", "value": 4, "unit": "nM"}]}]}
